Test results reported in US20250163127A1.

These substances were tested against T1, CD96 (human) (UniProt P40200) (assay: flow cytometry, transfected HEK293 cells).
T1 sequence: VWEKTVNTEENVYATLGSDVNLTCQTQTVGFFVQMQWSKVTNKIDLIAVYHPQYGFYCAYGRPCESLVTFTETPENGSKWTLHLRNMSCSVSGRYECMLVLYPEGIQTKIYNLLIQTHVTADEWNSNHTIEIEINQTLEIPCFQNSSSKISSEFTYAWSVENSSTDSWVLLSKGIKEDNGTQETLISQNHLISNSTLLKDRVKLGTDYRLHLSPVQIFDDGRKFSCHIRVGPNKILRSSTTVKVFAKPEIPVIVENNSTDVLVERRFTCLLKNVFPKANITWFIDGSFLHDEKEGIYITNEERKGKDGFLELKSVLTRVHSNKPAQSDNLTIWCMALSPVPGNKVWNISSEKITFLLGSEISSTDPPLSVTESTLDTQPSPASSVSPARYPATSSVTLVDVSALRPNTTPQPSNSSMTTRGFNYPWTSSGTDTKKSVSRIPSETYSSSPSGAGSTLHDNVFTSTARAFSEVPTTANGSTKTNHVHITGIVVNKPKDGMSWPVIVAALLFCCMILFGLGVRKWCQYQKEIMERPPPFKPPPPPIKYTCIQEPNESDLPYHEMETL

Substance	MFI at 100 nM
variant CD155 IgV-Fc, P18L, E37S, Q62M, G80S, A81P, G99Y, S112N (Fc fusion)	3340
variant CD155 IgV-Fc, Q62Y (Fc fusion)	1830
variant CD155 IgV-Fc, S42A (Fc fusion)	1620
variant CD155 IgV-Fc, S42C, S52M, Q62F (Fc fusion)	1480
variant CD155 IgV-Fc, S42G, S52L, Q62F, L104Q (Fc fusion)	1640
variant CD155 IgV-Fc, S42N, L104Q, G111R (Fc fusion)	1960
variant CD155 IgV-Fc, S42N, S52Q, Q62F (Fc fusion)	1740
variant CD155 IgV-Fc, S42W (Fc fusion)	2560
variant CD155 IgV-Fc, S42W, S52Q, V57L, Q62Y (Fc fusion)	1700
variant CD155 IgV-Fc, S52E (Fc fusion)	1800
variant CD155 IgV-Fc, S52M (Fc fusion)	1610
variant CD155 IgV-Fc, S52M, V57L (Fc fusion)	1860
variant CD155 IgV-Fc, S52R, Q62F, L104Q, G111R (Fc fusion)	2360
variant CD155 IgV-Fc, T45Q, S52L, L104E, G111R (Fc fusion)	1580

Further lines, results first:

MFI at 100 nM	Substance
3320	variant CD155 IgV-Fc, G111R (Fc fusion)
1540	variant CD155 IgV-Fc, L104Q (Fc fusion)
2760	variant CD155 IgV-Fc, Q62F (Fc fusion)
1640	variant CD155 IgV-Fc, S42A, S52Q, L104Q, G111R (Fc fusion)
1480	variant CD155 IgV-Fc, S42C, S52L (Fc fusion)
2320	variant CD155 IgV-Fc, S42L, S52L, Q62F, L104Q (Fc fusion)
2140	variant CD155 IgV-Fc, S42Q (Fc fusion)
1630	variant CD155 IgV-Fc, S52M, L104Q (Fc fusion)
4850	variant CD155 IgV-Fc, S52R (Fc fusion)
1630	variant CD155 IgV-Fc, S52W, L104E (Fc fusion)

Each substance was assayed against T2, CD226 (human) (UniProt Q15762) (assay: flow cytometry, transfected HEK293 cells).
T2 sequence: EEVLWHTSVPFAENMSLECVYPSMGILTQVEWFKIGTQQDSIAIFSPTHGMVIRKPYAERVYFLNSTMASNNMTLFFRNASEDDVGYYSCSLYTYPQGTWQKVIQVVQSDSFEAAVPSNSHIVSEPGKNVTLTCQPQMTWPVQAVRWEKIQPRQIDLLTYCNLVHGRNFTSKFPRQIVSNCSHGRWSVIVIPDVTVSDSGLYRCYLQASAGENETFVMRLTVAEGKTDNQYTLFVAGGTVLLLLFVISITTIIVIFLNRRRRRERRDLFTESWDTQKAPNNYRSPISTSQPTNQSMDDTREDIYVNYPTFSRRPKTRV

Substance	MFI at 100 nM
variant CD155 IgV-Fc, Q62Y (Fc fusion)	2620
variant CD155 IgV-Fc, S42A (Fc fusion)	2190
variant CD155 IgV-Fc, S42C, S52M, Q62F (Fc fusion)	2080
variant CD155 IgV-Fc, S42G, S52L, Q62F, L104Q (Fc fusion)	2160
variant CD155 IgV-Fc, S42G, S52Q, L104E, G111R (Fc fusion)	2020
variant CD155 IgV-Fc, S42N, L104Q, G111R (Fc fusion)	2310
variant CD155 IgV-Fc, S42N, S52Q, Q62F (Fc fusion)	2150
variant CD155 IgV-Fc, S42W (Fc fusion)	2130
variant CD155 IgV-Fc, S42W, S52Q, V57L, Q62Y (Fc fusion)	2140
variant CD155 IgV-Fc, S52E (Fc fusion)	2600
variant CD155 IgV-Fc, S52L (Fc fusion)	2680
variant CD155 IgV-Fc, S52M (Fc fusion)	1900
variant CD155 IgV-Fc, S52M, V57L (Fc fusion)	2430
variant CD155 IgV-Fc, S52R, Q62F, L104Q, G111R (Fc fusion)	3170
variant CD155 IgV-Fc, T45Q, S52L, L104E, G111R (Fc fusion)	2390

Other lines, results leading:

MFI at 100 nM	Substance
2790	variant CD155 IgV-Fc, G111R (Fc fusion)
3790	variant CD155 IgV-Fc, L104Q (Fc fusion)
2570	variant CD155 IgV-Fc, Q62F (Fc fusion)
2160	variant CD155 IgV-Fc, S42A, S52Q, L104Q, G111R (Fc fusion)
2150	variant CD155 IgV-Fc, S42C, S52L (Fc fusion)
2640	variant CD155 IgV-Fc, S42L, S52L, Q62F, L104Q (Fc fusion)
2230	variant CD155 IgV-Fc, S42Q (Fc fusion)
2250	variant CD155 IgV-Fc, S52M, L104Q (Fc fusion)
3960	variant CD155 IgV-Fc, S52R (Fc fusion)
1910	variant CD155 IgV-Fc, S52W, L104E (Fc fusion)

These substances were tested against T3, TIGIT (human) (UniProt Q495A1) (assay: flow cytometry, transfected HEK293 cells).
T3 sequence: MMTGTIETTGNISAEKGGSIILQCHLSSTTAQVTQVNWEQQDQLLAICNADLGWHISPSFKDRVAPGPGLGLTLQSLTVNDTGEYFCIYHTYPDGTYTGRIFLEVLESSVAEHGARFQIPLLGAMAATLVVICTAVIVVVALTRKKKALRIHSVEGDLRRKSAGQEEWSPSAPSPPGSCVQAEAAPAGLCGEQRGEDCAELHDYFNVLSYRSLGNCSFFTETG

Substance	MFI at 25 nM [MFI]	MFI at 100 nM
CD155 variant IgV-Fc P18S, H59N, V75A, L79P, A81T, F91S, L104M, T107M (Fc fusion)	800	
variant CD155 IgV-Fc, A13R, D23Y, E37P, S42P, Q62Y, A81E (Fc fusion)		4160
variant CD155 IgV-Fc, P18S, V41A, S42G, T45G, L104N (Fc fusion)		3820
variant CD155 IgV-Fc, Q62Y (Fc fusion)		2530
variant CD155 IgV-Fc, S42N, L104Q, G111R (Fc fusion)		2430
variant CD155 IgV-Fc, S42N, S52Q, Q62F (Fc fusion)		2400
variant CD155 IgV-Fc, S42W (Fc fusion)		2430
variant CD155 IgV-Fc, S52E (Fc fusion)		2660
variant CD155 IgV-Fc, S52L (Fc fusion)		2220
variant CD155 IgV-Fc, S52R, Q62F, L104Q, G111R (Fc fusion)		2970
variant CD155 IgV-Fc, T45Q, S52L, L104E, G111R (Fc fusion)		2290

The next lines start with the values.

MFI at 25 nM [MFI]	MFI at 100 nM	Substance
3000		CD155 variant IgV-Fc V9L, V11M, P18S, N35S, S54G, Q62K, L79P, L104M, T107M, V115M (Fc fusion)
	2210	variant CD155 IgV-Fc, Q62F (Fc fusion)
	2670	variant CD155 IgV-Fc, S52M, L104Q (Fc fusion)
	4400	variant CD155 IgV-Fc, S52R (Fc fusion)
